{"source": "patent US6991794B1", "about": "“Progenitor cell preservation factors and methods for and products of their use” (ImClone Systems Incorporated, priority 1997, dated 2006)", "target": "T1, murine extracellular domain of the Flt3 receptor fused to the transmembrane and intracellular domains of the human Fms (UniProt P07333+Q00342, A795S/A899S/C564L/C654D/C793H/C831G/D601N/D652H/D673E/D898N/DEL545-556/DEL576-597/DEL711-780/E609N/E612Q/E649S/E789R/E803A/E806A/E865D/F571P/F692T/F788L/F807S/G637D/G866C/H565Y/H671Q/H824N/I560L/I563L/I633L/I640L/I867V/I870V/INS558VACMSIMALLLL/INS573QVRWKII/INS599GNSYTFIDPTQLP/INS709AMLGPSLSPGQDPEGGVDYKNIHLEKKYVRRDSGFSSQGVDTYVEMRPVSTSSNDSFSEQDLD/K569Q/K650T/K800Q/K826H/K871Q/L602E/L684H/L690V/L783G/L815V/L840M/L863I/M626V/M665I/N627E/N784R/N900K/P896L/Q570K/Q641K/R572K/R624K/R708A/R848K/S619A/S634G/S639V/S653A/S685G/S706R/S809N/S841N/S844N/T636E/T667S/T787E/V561L/V616T/V638A/V785P/V811I/V822L/V828A/V846I/V889L/Y631F/Y689L/Y703F/Y796S)", "T1 construct": "consisting of the murine extracellular domain of the Flt3 receptor fused to the transmembrane and intracellular domains of the human Fms; expressed in transfected cells; host or cells: NIH 3T3 (mFlt3/Fms 3T3 cell line, provided by Dr. Ihor Lemischka)", "T1 sequence (Q00342+P07333 with tags, fused parts or gaps Q00342:DEL545-556/Q00342:INS558VACMSIMALLLL/Q00342:I560L/Q00342:V561L/Q00342:I563L/Q00342:C564L/Q00342:H565Y/Q00342:K569Q/Q00342:Q570K/Q00342:F571P/Q00342:R572K/Q00342:INS573QVRWKII/Q00342:DEL576-597/Q00342:INS599GNSYTFIDPTQLP/Q00342:D601N/Q00342:L602E/Q00342:E609N/Q00342:E612Q/Q00342:V616T/Q00342:S619A/Q00342:R624K/Q00342:M626V/Q00342:N627E/Q00342:Y631F/Q00342:I633L/Q00342:S634G/Q00342:T636E/Q00342:G637D/Q00342:V638A/Q00342:S639V/Q00342:I640L/Q00342:Q641K/Q00342:E649S/Q00342:K650T/Q00342:D652H/Q00342:S653A/Q00342:C654D/Q00342:M665I/Q00342:T667S/Q00342:H671Q/Q00342:D673E/Q00342:L684H/Q00342:S685G/Q00342:Y689L/Q00342:L690V/Q00342:F692T/Q00342:Y703F/Q00342:S706R/Q00342:R708A/Q00342:INS709AMLGPSLSPGQDPEGGVDYKNIHLEKKYVRRDSGFSSQGVDTYVEMRPVSTSSNDSFSEQDLD/Q00342:DEL711-780/Q00342:L783G/Q00342:N784R/Q00342:V785P/Q00342:T787E/Q00342:F788L/Q00342:E789R/Q00342:C793H/Q00342:A795S/Q00342:Y796S/Q00342:K800Q/Q00342:E803A/Q00342:E806A/Q00342:F807S/Q00342:S809N/Q00342:V811I/Q00342:L815V/Q00342:V822L/Q00342:H824N/Q00342:K826H/Q00342:V828A/Q00342:C831G/Q00342:L840M/Q00342:S841N/Q00342:S844N/Q00342:V846I/Q00342:R848K/Q00342:L863I/Q00342:E865D/Q00342:G866C/Q00342:I867V/Q00342:I870V/Q00342:K871Q/Q00342:V889L/Q00342:P896L/Q00342:D898N/Q00342:A899S/Q00342:N900K)": "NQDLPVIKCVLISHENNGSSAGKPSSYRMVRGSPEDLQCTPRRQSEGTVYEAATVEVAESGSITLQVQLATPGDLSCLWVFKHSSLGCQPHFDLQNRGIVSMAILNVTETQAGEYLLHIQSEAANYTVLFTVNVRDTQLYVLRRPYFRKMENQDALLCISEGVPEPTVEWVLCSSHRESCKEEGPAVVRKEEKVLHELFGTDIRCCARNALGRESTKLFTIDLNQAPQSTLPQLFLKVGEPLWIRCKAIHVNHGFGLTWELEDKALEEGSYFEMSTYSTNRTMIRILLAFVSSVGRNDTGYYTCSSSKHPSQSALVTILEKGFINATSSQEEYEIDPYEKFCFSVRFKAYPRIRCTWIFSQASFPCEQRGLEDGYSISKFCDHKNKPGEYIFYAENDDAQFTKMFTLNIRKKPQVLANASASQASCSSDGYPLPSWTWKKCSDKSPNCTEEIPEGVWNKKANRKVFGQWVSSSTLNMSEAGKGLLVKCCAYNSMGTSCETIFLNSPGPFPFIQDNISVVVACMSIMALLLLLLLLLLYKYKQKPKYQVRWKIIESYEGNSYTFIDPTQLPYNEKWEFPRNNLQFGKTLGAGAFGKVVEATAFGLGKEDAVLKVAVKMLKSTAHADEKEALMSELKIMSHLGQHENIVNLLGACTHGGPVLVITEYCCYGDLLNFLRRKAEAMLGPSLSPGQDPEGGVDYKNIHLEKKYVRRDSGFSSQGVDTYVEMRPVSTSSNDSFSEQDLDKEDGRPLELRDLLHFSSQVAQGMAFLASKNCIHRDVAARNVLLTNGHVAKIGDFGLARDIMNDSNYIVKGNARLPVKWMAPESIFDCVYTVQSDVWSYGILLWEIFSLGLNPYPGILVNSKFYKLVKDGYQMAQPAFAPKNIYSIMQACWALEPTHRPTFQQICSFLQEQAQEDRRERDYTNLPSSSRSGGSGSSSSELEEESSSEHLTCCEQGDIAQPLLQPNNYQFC", "experiment": "mFlt3/Fms 3T3 biological screening assay (XTT)", "type": "cell-based", "excerpt": "A biological screening assay to search for novel stimulators of the Flt3 receptor was developed using NIH 3T3 cells transfected with expression vectors containing cDNA of murine and human Flt3 and the related Fms receptor. The mFlt3/Fms 3T3 cell line is a 3T3 cell line transfected with nucleic acid encoding a fusion protein consisting of the murine extracellular domain of the Flt3 receptor fused to the transmembrane and intracellular domains of the human Fms (provided by Dr. Ihor Lemischka, Princeton University, Princeton, N.J.). The Stk 3T3 cell line is a 3T3 cell line transfected with the full-length human Flt3 receptor (provided by Dr. Donald Small, Johns Hopkins University, Baltimore, Md.). The human FMS 3T3 cell line is a 3T3 cell line transfected with the full-length human Fms receptor (provided by Dr. Charles Sherr, Saint Jude Children's Research Hospital, Memphis, Tenn. Parent 3T3 cells were purchased from American Type Culture Collection (“ATCC”; Manassas, Va.). Receptor-transfected cells contained Neo resistance genes and were maintained in medium containing 750 µg/ml of G418 (Life Technologies, Rockville, Md.).\nTo create factor-dependence for receptor-transfected 3T3 cells, growth conditions were compromised to permit only ligands to rescue cells from death. To do this, 3T3 cell lines were assayed in 96 well plates (Becton Dickinson Labware, Lincoln Park, N.J.) containing 3,000 cells in 100 μL of serum-free medium consisting of 10% AIMV (Life Technologies) and 90% DMEM. In each experiment, samples were serially diluted two-fold across rows starting at a 1:10 dilution. Viable cells were quantitated after 3-5 days by XTT (2,3-bis[Methoxy-4-nitro-5sulfophenyl]-2H-tetrazolium-5 carboxanilide inner salt) (Sigma, St. Louis, Mo.) (Roehm et al., supra). Relative activity (units/ml) and specific activity (units/mg) are defined as the reciprocal dilution at which half-maximal stimulation of cells was detected.", "note": "Read-outs that look alike come from different tables or passages of the source."}
{"molecule": "Pv-FRIL: FRIL family mannose-binding lectin from Phaseolus vulgaris (red kidney bean), SEQ ID NO: 6 (protein) AQSLSFNFTKFDLDQKDLIFQGDATSTNNVLQLTKLDSGGNPVGASVGRVLFSAPFHLWENSMAVSSFETNLTIQISTPHPYYAADGFAFFLAPHDTVIPPNSWGKFLGLYSNVFRNSPTSENQSFGDVNTDSRVVAVEFDTFPNANIDPNYRHIGIDVNSIKSKETARWEWQNGKTATARISYNSASKKSTVTTFYPGMEVVALSHDVDLHAELPEWVRVGLSASTGEEKQKNTIISWSFTSSLKNNEVKEPKEDMYIANVVRSYTWINDVLSYISNKMYDALNNNHKYVRCSTCMLFMKKK", "values": [{"measurement": "response of mFlt3/Fms 3T3 cells", "value": "responded in a dose dependent manner"}, {"measurement": "response of mFlt3/Fms 3T3 cells", "setting": "presence of rhIL1", "value": "respond to FRIL in the presence of rhIL1"}]}
